Broadly, the Kd is the constant that tells how readily two partners part at equilibrium. The low end stands for a tighter complex, the high end for a looser complex.

Experiment in all cases: fluorescence polarisation
Assay [1] deals with GLhelix-4 with Trp 534 mutated to alanine (UniProt O08773).
In assay [2] the target is GLhelix-4, redesigned RGS14 GoLoco motif peptide (UniProt O08773).
Assay [3] has as its target heterotrimeric G-protein alpha subunit Gαi1 in its inactive, GDP-complexed state (UniProt P63096 30-354).

Sequence of heterotrimeric G-protein alpha subunit Gαi1 in its inactive, GDP-complexed state (from UniProt P63096 30-354) (natural protein) (P63096 30-354, one chain of several): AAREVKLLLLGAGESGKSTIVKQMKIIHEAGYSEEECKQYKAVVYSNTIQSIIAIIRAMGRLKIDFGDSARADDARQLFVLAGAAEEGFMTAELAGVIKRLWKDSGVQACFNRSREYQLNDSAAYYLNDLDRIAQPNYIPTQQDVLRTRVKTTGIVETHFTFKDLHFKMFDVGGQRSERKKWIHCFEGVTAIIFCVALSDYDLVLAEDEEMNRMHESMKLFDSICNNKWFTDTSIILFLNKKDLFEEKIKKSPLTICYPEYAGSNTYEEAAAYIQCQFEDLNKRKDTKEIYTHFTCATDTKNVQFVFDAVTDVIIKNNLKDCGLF
Sequence of heterotrimeric G-protein alpha subunit Gαi1 in its inactive, GDP-complexed state (UniProt P63096 30-354) (P63096 30-354, one chain of several): as above

Turning to “heterotrimeric G-protein alpha subunit Gαi1 in its inactive, GDP-complexed state (from UniProt P63096 30-354) (natural protein)”, the Kd in assay [1] was 1400 nM; in assay [2], 810 nM.
DIEGLVELLNRVQSSGAHDQRGLLRKEDLVLPEFLQ [RGS14 GoLoco motif peptide (wildtype, 36 residues)] returned an equilibrium dissociation constant (Kd) in assay [3] of 95 nM.

The values are drawn from publication PMC3081598 (Journal of the American Chemical Society, 2011).
